The target of the experiment is H chains of human 7S γ-globulin reduced without alkylation (human). Briefly: co-sedimentation.

Data on one substance can be found in PMC2137744.

“L chains of human 7S γ-globulin reduced without alkylation (natural protein)”: the yield of doubly labeled 7S material is 30 per cent.
